Reference: patent US20110129459A1 (Chugai, published 2011)
Positions count from the first letter of the chain named. Read-outs that look alike come from different tables or passages of the source.

Tests used:
[1] = biological target: T1, rhNR10 (recombinant human NR10) (human, UniProt Q8NI17 20-519, limits assumed); assay: SPR, Biacore T100; antibody captured on Protein A, rhNR10 as analyte
T1 construct: also called IL-31 receptor; IL31RA
T1 sequence: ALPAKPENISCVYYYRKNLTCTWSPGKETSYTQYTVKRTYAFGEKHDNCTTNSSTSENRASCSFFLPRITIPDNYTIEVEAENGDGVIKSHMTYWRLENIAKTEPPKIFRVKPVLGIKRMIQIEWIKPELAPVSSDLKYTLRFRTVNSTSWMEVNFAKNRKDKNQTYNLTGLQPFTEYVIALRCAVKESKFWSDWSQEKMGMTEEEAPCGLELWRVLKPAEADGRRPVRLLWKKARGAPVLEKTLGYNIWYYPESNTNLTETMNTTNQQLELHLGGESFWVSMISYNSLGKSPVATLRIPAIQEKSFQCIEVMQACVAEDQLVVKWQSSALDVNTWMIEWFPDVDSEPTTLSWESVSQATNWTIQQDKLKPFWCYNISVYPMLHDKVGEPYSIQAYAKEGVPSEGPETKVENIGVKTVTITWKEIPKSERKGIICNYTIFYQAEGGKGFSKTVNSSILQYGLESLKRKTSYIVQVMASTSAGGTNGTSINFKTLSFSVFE
Method: (§1) Kinetic analysis of the antigen-antibody reaction was carried out using Biacore T100 (GE Healthcare Biosciences). The antigen-antibody interaction was measured by immobilizing rec-Protein A (hereinafter Protein A) (ZYMED) onto a sensor chip, capturing an antibody on the immobilized Protein A, and then reacting the antigen as an analyte. Various concentrations of rhNR10 were used as the antigen. The kinetic parameters, association rate constant kₐ (1/Ms) and dissociation rate constant kd (1/s), were calculated from the sensorgrams obtained by the measurement. Then, KD (M) was determined based on the rate constants. Each parameter was determined using Biacore T100 Evaluation Software version 1.1 (GE Healthcare Biosciences).
(§2) The running buffer used was HBS-EP+. Each antibody was prepared at 0.25 μg/ml, or prepared so that about 100 RU would bind to Protein A. rhNR10 used as an analyte was prepared at 0, 38.5, 77.0, and 154 nM, or at 0, 19.25, and 77.01 nM using HBS-EP+. In the measurement, first, the antibody solution was captured on Protein A, and an analyte solution was reacted at a flow rate of 20 μL/min for three minutes. Then, the solution was switched to HBS-EP+, and the dissociation phase was measured for five minutes. After measurement of the dissociation phase, the sensor chip was regenerated by washing with 10 mM glycine-HCl (pH 1.5). The obtained sensorgrams were kinetically analyzed using the Biacore-specific data analysis software, Biacore T100 Evaluation Software Version 1.1.

[2] = biological target: T1, rhNR10 (recombinant human NR10); assay: as above; remark: listed apart in the source
Method: as §1, §2

[3] = biological target: T2, cytoplasmic domain-lacking human NR10 on CHO cells (hNR10-expressing CHO cells) (human, UniProt Q8NI17 20-553); assay: FMAT competition on hNR10-expressing CHO cells: antibody titrated against FMAT Blue-labeled hIL-31; FL1 = cell-bound labeled hIL-31; mean±S.D. (n=3)
T2 construct: also called NR10-expressing cells
T2 sequence: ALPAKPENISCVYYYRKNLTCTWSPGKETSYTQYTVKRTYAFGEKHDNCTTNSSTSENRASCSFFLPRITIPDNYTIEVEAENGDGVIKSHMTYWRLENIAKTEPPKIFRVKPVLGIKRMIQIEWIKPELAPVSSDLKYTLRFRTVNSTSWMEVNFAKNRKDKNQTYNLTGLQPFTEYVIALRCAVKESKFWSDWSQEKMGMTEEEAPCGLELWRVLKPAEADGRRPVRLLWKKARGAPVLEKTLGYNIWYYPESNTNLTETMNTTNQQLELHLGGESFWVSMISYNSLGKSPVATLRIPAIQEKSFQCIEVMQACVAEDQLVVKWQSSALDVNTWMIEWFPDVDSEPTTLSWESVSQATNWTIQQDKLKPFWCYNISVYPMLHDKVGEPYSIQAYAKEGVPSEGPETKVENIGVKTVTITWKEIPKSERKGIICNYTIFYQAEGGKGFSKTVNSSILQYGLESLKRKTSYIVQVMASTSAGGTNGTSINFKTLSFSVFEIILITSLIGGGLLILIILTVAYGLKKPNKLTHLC
Method: Antibodies were assessed for the activity of inhibiting the IL-31/NR10 binding by using hNR10-expressing CHO cells as described below. The chimeric NS22 antibody and NS22_H0L0 (H chain, H0-SKSC/SEQ ID NO: 54; L chain, L0/SEQ ID NO: 56) were diluted at an appropriate concentration using Assay buffer (10 mM HEPES, 140 mM NaCl, 2.5 mM CaCl₂, 3 mM MgCl₂, 2% FBS, 0.01% NaN₃, pH7.4), and further eight serial dilutions were prepared at a common dilution ration of 2. The dilutions were added at 40 μl/well to plates (96-Well FMAT Plates, Applied Biosystems). Then, FMAT Blue-labeled hIL-31 was diluted 400 times with Assay buffer, and added at 20 μl/well. Finally, a cell suspension adjusted to 2.5×10⁵ cells/ml using Assay buffer was added at 40 μl/well (final 1×10⁴ cells/well). Two hours after addition of cells, the fluorescence (FL1) was measured using the 8200 Cellular Detection System (Applied Biosystems).
Each variant was tested for the activity of inhibiting the hIL-31/hNR10 binding by using FMAT. The test was carried out according to the method as described in Example 4.

[4] = biological target: T1, rhNR10 (recombinant human NR10); assay: SPR, Biacore T100; antibody captured on Protein A, rhNR10 as analyte; remark: listed apart in the source
Method: as §1, §2

[5] = biological target: T1, rhNR10 (recombinant human NR10); assay: as above; remark: listed apart in the source
Method: as §1, §2

[6] = biological target: T3, soluble human FcRn (FcRn extracellular domain / beta2-microglobulin complex) (human, UniProt P55899 24-290; P61769 21-119); assay: SPR, Biacore 3000; antibody captured on chip, soluble human FcRn as analyte, steady state affinity, pH 6.0
T3 construct: The expression constructs contain the signal regions (FcRn Met1-Leu290; beta2-microglobulin Met1-Met119); also called hFcRn
Method: The binding to human FcRn was assessed using Biacore 3000. An antibody was bound to Protein L or rabbit anti-human IgG Kappa chain antibody immobilized onto a sensor chip, human FcRn was added as an analyte for interaction with the antibody, and the affinity (KD) was calculated from the amount of bound human FcRn. Specifically, Protein L was immobilized onto sensor chip CM5 (BIACORE) by the amine coupling method using 50 mM Na-phosphate buffer (pH 6.0) containing 150 mM NaCl as the running buffer. Then, an antibody was diluted with the running buffer containing 0.02% Tween20, and injected and allowed to bind to the chip. Human FcRn was then injected to assess the binding activity of the antibody to the human FcRn.
The affinity was calculated using BIAevaluation software. The obtained sensorgram was used to calculate the amount of hFcRn bound to the antibody immediately before the end of human FcRn injection. This was fitted by the steady state affinity method to calculate the affinity of human FcRn for the antibody.

T3 sequence (P55899 24-290 limits assumed, chain 1 of 2): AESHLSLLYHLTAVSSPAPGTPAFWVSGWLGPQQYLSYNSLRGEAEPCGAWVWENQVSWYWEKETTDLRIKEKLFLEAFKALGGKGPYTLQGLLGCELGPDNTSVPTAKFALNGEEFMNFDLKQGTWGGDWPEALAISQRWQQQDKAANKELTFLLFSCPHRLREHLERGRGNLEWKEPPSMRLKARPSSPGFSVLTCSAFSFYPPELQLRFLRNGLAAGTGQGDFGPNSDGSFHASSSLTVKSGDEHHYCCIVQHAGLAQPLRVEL
T3 sequence (P61769 21-119 limits assumed, chain 2 of 2): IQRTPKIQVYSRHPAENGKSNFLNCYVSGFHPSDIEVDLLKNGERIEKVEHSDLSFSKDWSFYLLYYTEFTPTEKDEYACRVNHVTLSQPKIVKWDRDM

B1: Ha401La402 (Ha401-SKSC / La402) (antibody, V domains shown)
VH: QVQLVQSGAEVKKPGASVKVSCKASGYTFTGYVINWVRQAPGQGLEWMGLINPYNGGTDYNQKFKGRVTITADESTSTAYMELSSLRSEDTAVYYCARDGYDDGPYTMDYWGQGTLVTVSS
VL: DIQMTQSPSSLSASVGDRVTITCQTSENIYRFVAWYQQKPGKAPKLLIYNAKTLAKGVPSRFSGSGSGTDFTLTISSLQPEDFATYYCQHHYDSPLTFGGGTKVEIKR
How did the Kd [1] turn out when B1 was run?
Its Kd is 0.5 nM.

What about the koff [1] of the same binder?
The koff was 0.00029 s⁻¹.

What about the kon [1] of the same binder?
The kon was 580000 M⁻¹ s⁻¹.

B2: Hp3Lp15 (Hp3-SKSC / Lp15) (antibody, V domains shown)
VH: B1 VH with V33I, I34M, D59S, K63Q, K65Q, G66D
VL: B1 VL with N28D, R31S, V33L, K52Q, L54E, K56Q, D93E
notes: also called Hp3Lp15-SKSC
With B2 as the binder, how does the Kd [2] read?
The Kd was 3.9 nM.

And the koff [2]?
Its koff is 0.0016 s⁻¹.

And the kon [2]?
Its kon is 420000 M⁻¹ s⁻¹.

B3: Hp13 variant of H0L0 (antibody, V domains shown)
VH: B1 VH with V33I, I34M, D59S, K65Q, G66D
VL: DIQMTQSPSSLSASVGDRVTITCRTSENIYSFLAWYQQKPGKAPKLLIYNAKTLAKGVPSRFSGSGSGTDFTLTISSLQPEDFATYYCQHHYESPLTFGGGTKVEIK
Does B3 bind [3]?
Result: binds

B4: Lp1 variant of H0L0 (antibody, V domains shown)
VH: B1 VH with V33I, I34M, D59S
VL: B3 VL with R24Q
Does B4 bind [3]?
Result: binds

B5: Lp2 variant of H0L0 (antibody, V domains shown)
VH: B1 VH with V33I, I34M, D59S
VL: B3 VL with N28D
Does B5 bind [3]?
Result: binds

B6: Lp3 variant of H0L0 (antibody, V domains shown)
VH: B1 VH with V33I, I34M, D59S
VL: B3 VL with N50D
Does B6 bind [3]?
Result: binds

B7: Lp4 variant of H0L0 (antibody, V domains shown)
VH: B1 VH with V33I, I34M, D59S
VL: B3 VL with K52Q
Does B7 bind [3]?
Result: binds

B8: Lp7 variant of H0L0 (antibody, V domains shown)
VH: B1 VH with V33I, I34M, D59S
VL: B3 VL with L54E
Does B8 bind [3]?
Result: binds

B9: H0L12 (H0-M58 / L12) (antibody, V domains shown)
VH: B1 VH with V33I, I34M, D59S
VL: B1 VL with N28D, R31S, K52Q, L54E, K56Q
How did the Kd [4] turn out when B9 was run?
The Kd was 2 nM.

What about the koff [4] of the same binder?
Its koff is 0.00074 s⁻¹.

And the kon [4]?
The kon was 380000 M⁻¹ s⁻¹.

What about the “fold affinity relative to H0L0” value [2] of the same binder?
The value was roughly 2 fold.

B10: H0L17 (H0-M58 / L17) (antibody, V domains shown)
VH: B1 VH with V33I, I34M, D59S
VL: B1 VL with T25A, N28D, R31S, K52Q, L54E, K56Q
How did the Kd [4] turn out when B10 was run?
The Kd was 2.1 nM.

What about the koff [4] of the same binder?
The koff was 0.00081 s⁻¹.

And the kon [4]?
The kon was 390000 M⁻¹ s⁻¹.

B11: H17L11 (H17-M58 / L11) (antibody, V domains shown)
VH: B1 VH with I34L, Q62P, K63Q, K65Q, G66D
VL: B1 VL with N28D, K52Q, L54E, K56Q
With B11 as the binder, how does the Kd [5] read?
The Kd was 0.62 nM.

And the koff [5]?
Its koff is 0.00026 s⁻¹.

And the kon [5]?
Its kon is 430000 M⁻¹ s⁻¹.

B12: H19L12 (H19-M58 / L12) (antibody, V domains shown)
VH: B1 VH with V33A, I34M, Q62P, K63Q, K65Q, G66D
VL: B1 VL with N28D, R31S, K52Q, L54E, K56Q
Which Kd [2] does the source give for B12 here?
The Kd was 5.1 nM.

And the koff [2]?
The koff was 0.0012 s⁻¹.

And the kon [2]?
Its kon is 230000 M⁻¹ s⁻¹.

B13: H0L0-IgG1 (antibody)
heavy: not shown
light: DIQMTQSPSSLSASVGDRVTITCRTSENIYSFLAWYQQKPGKAPKLLIYNAKTLAKGVPSRFSGSGSGTDFTLTISSLQPEDFATYYCQHHYESPLTFGGGTKVEIKRTVAAPSVFIFPPSDEQLKSGTASVVCLLNNFYPREAKVQWKVDNALQSGNSQESVTEQDSKDSTYSLSSTLTLSKADYEKHKVYACEVTHQGLSSPVTKSFNRGEC
Which Kd [6] does the source give for B13 here?
Its Kd is 1070 nM.

B14: huPM1-M58 (humanized anti-IL-6 receptor antibody with constant region M58) (antibody)
heavy: QVQLQESGPGLVRPSQTLSLTCTVSGYSITSDHAWSWVRQPPGRGLEWIGYISYSGITTYNPSLKSRVTMLRDTSKNQFSLRLSSVTAADTAVYYCARSLARTTAMDYWGQGSLVTVSSASTKGPSVFPLAPSSKSTSGGTAALGCLVKDYFPEPVTVSWNSGALTSGVHTFPAVLQSSGLYSLSSVVTVPSSNFGTQTYTCNVDHKPSNTKVDKTVERKSCVECPPCPAPPVAGPSVFLFPPKPKDTLMISRTPEVTCVVVDVSQEDPEVQFNWYVDGVEVHNAKTKPREEQFNSTFRVVSVLTVVHQDWLNGKEYKCKVSNKGLPAPIEKTISKTKGQPREPQVYTLPPSQEEMTKNQVSLTCLVKGFYPSDIAVEWESNGQPENNYKTTPPMLDSDGSFFLYSKLTVDKSRWQEGNVFSCSVMHEALHNHYTQKSLSLSP
light: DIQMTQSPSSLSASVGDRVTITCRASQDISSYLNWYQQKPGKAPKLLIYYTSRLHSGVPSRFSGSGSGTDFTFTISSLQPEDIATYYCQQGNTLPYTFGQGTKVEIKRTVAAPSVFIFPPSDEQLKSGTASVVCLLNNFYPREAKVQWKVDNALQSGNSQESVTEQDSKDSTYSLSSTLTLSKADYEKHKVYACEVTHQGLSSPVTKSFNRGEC
How did the Kd [6] turn out when B14 was run?
Its Kd is 1170 nM.

What about the “fold binding activity relative to huPM1-IgG1” value [6] of the same binder?
The value was roughly 1.4 fold.
